# From US20050271676A1, “Inducing cellular immune responses to human immunodeficiency virus-1 using peptide and nucleic acid compositions” (Epimmune Inc., priority 1993, published 2005)
# pIC50: −log10 of the molar value. No end group written: not given here.
# Tests used:
# HLA-A*0203 = HLA-A*0203 (Homo sapiens, UniProt P04439, A173T/D140Y/D185E/D98H/E277Q/G131W/G231S/I119V/I121R/I166T/I218V/L180W/L300P/L318F/N151K/N90K/P208A/P217A/Q86G/Q94H/R138H/R169H/T345S); test: purified HLA class I binding assay, A*0203
# HLA-DRB1*0301 (DR3) = target: T1, HLA-DRB1*0301 (DR3) (Homo sapiens, UniProt P01903+P01911, A100K/A102G/A103R/A169T/F55Y/I96L/K41T/L162R/M171V/P40S/Q125H/Q178H/Q39Y/R42S/S66N/T106N/T262R/W38E/Y61H); test: purified HLA class II binding assay, DRB1*0301 (DR3), pH 4.5
# T1 construct: endogenous in cells; host or cells: MAT
# T1 sequence (P01903 26-254 partner, other chains not shown): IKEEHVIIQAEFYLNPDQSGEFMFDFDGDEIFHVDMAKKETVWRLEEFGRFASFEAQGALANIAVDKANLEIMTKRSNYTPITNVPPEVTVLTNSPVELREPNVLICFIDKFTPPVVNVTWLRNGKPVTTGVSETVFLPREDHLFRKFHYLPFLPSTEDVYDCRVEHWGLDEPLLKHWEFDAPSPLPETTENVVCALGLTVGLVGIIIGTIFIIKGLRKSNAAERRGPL
# HLA-A*0202 = HLA-A*0202 (Homo sapiens, UniProt P04439, D140Y/D185E/D98H/E176V/E277Q/G131W/G231S/I119L/I121R/I166T/I218V/L180W/L300P/L318F/N151K/N90K/P208A/P217A/Q67R/Q86G/Q94H/R138H/R169H/T345S); test: purified HLA class I binding assay, A*0202
# HLA-A*6802 = HLA-A*6802 (Homo sapiens, UniProt P04439, A269V/D140Y/D185E/E176V/E277Q/E87N/F33Y/G231S/I121R/I166T/I218V/L180W/L300P/L318F/N151K/P208A/P217A/Q86R/R138H/R169H/S129P/T345S/V36M); test: purified HLA class I binding assay, A*6802
# HLA-A*0206 = HLA-A*0206 (Homo sapiens, UniProt P04439, D140Y/D185E/D98H/E176V/E277Q/F33Y/G131W/G231S/I119V/I121R/I166T/I218V/L300P/L318F/N151K/N90K/P208A/P217A/Q86G/Q94H/R138H/R169H/T345S); test: purified HLA class I binding assay, A*0206
# HLA-A*0201 = HLA-A*0201 (Homo sapiens, UniProt P04439, D140Y/D185E/D98H/E176V/E277Q/G131W/G231S/I119V/I121R/I166T/I218V/L300P/L318F/N151K/N90K/P208A/P217A/Q86G/Q94H/R138H/R169H/T345S); test: purified HLA class I binding assay, A*0201; conditions: for A*0201 binding (HIV A02 Super Motif Peptides with Binding Information): purified HLA-A*0201
# HLA-DRB1*0701 (DR7) = target: T2, HLA-DRB1*0701 (DR7) (Homo sapiens, UniProt P01903+P01911, A100R/A102G/A103Q/D57E/D86V/E43K/F76Y/K127E/L162R/M171V/P40G/Q125H/Q99D/R33Q/R42Y/R54Q/S133A/S66F/T210M/V115G/Y107V/Y59L/Y89S); test: biochemical; format: binding
# T2 construct: endogenous in cells; host or cells: Pitout
# HLA-DRB1*0802 (DR8w2) = target: T3, HLA-DRB1*0802 (DR8w2) (Homo sapiens, UniProt P01903+P01911, A100R/A103L/A169T/F76Y/H45Y/I96F/K41T/L162R/M171V/P40S/Q125H/Q178H/Q39Y/Q99D/R218S/R42G/S66Y/V115G/W38E); test: biochemical; format: binding
# T3 construct: endogenous in cells
# HLA-DRB1*1302 (DR6w19) = HLA-DRB1*1302 (DR6w19) (Homo sapiens, UniProt P01903+P01911, A100E/A169T/K41T/L162R/M171V/P40S/Q125H/Q178H/Q39Y/Q99D/R42S/S66N/T262R/V115G/W38E/Y61H); test: purified HLA class II binding assay, DRB1*1302 (DR6w19); conditions: for DR6w19 binding information: Table XXb, HIV DR 3a motif peptides
# HLA-A*0301 = target: T4, HLA-A*0301 (Homo sapiens, UniProt P04439); test: purified HLA class I binding assay, A*0301
# T4 construct: endogenous in cells; host or cells: GM3107
# [1] = Table XXd, HIV DR 3b motif peptides
# [2] = HIV A02 super motif peptides, Table VIII, unit not given
# [3] = Table VIII, HIV A02 supermotif peptides, unit not given
# [4] = Table XXb, HIV DR 3a motif peptides
# [5] = HIV A02 Super Motif Peptides with Binding Information, Table VIII, unit not given
compound,measurement,setting,value
CSCC[C@H](NC(=O)[C@H](C)NC(=O)[C@@H](N)CCCNC(=N)N)C(=O)N[C@@H](C)C(=O)N[C@@H](CO)C(=O)N[C@@H](CC(=O)O)C(=O)N[C@@H](Cc1ccccc1)C(=O)N[C@@H](CC(N)=O)C(=O)N[C@@H](CC(C)C)C(=O)O [1260.10],pIC50,HLA-A*0203,4.60
CC[C@H](C)[C@H](NC(=O)[C@@H](NC(=O)CNC(=O)[C@H](CC(C)C)NC(=O)[C@H](C)NC(=O)[C@H](Cc1ccc(O)cc1)NC(=O)[C@H](CCC(N)=O)NC(=O)[C@H](CO)NC(=O)[C@H](CC(=O)O)NC(=O)[C@@H](NC(=O)[C@@H](NC(=O)[C@@H](NC(=O)[C@H](CC(N)=O)NC(=O)[C@@H](NC(=O)[C@@H](N)CCC(=O)O)C(C)C)[C@@H](C)CC)C(C)C)[C@@H](C)O)[C@@H](C)CC)C(=O)O [Peptide 35.0127],pIC50,HLA-DRB1*0301 (DR3),6.14
CSCC[C@H](NC(=O)[C@H](C)NC(=O)[C@H](CCC(=O)O)NC(=O)[C@H](C)NC(=O)[C@H](CC(C)C)NC(=O)[C@@H](N)C(C)C)C(=O)N[C@@H](CO)C(=O)N[C@@H](CCC(N)=O)C(=O)N[C@H](C(=O)O)C(C)C [Peptide 1069.32],pIC50,HLA-A*0203,7.82
same,pIC50,HLA-A*0202,7.08
CC(C)C[C@H](NC(=O)[C@H](CCCCN)NC(=O)[C@H](Cc1ccccc1)NC(=O)[C@H](CS)NC(=O)[C@H](Cc1c[nH]c2ccccc12)NC(=O)CNC(=O)[C@H](Cc1ccccc1)NC(=O)[C@@H](NC(=O)[C@@H](N)CC(C)C)[C@@H](C)O)C(=O)O [Peptide 1261.04],pIC50,HLA-A*6802,8.25
same,pIC50,HLA-A*0203,5.34
same,pIC50,HLA-A*0206,6.69
CC[C@H](C)[C@H](NC(=O)CNC(=O)[C@H](C)NC(=O)[C@H](Cc1c[nH]c2ccccc12)NC(=O)[C@H](Cc1c[nH]c2ccccc12)NC(=O)[C@H](CS)NC(=O)[C@H](C)NC(=O)[C@H](C)NC(=O)[C@@H](N)CCCCN)C(=O)O [Peptide 1261.07],pIC50,HLA-A*0203,7.08
same,pIC50,HLA-A*0206,6.79
CC[C@H](C)[C@H](NC(=O)[C@H](CC(N)=O)NC(=O)[C@@H](NC(=O)[C@@H]1CCCN1C(=O)[C@@H](NC(=O)[C@@H]1CCCN1C(=O)CNC(=O)[C@@H](NC(=O)[C@@H](N)CC(C)C)C(C)C)[C@@H](C)O)C(C)C)C(=O)O [Peptide 1261.09],pIC50,HLA-A*6802,7.17
same,pIC50,HLA-A*0203,7.72
same,pIC50,HLA-A*0206,5.55
CC[C@H](C)[C@H](NC(=O)[C@H](Cc1ccccc1)NC(=O)[C@H](CC(C)C)NC(=O)[C@H](CC(C)C)NC(=O)[C@H](CCC(N)=O)NC(=O)[C@H](CCC(N)=O)NC(=O)[C@H](CC(C)C)NC(=O)[C@@H](NC(=O)[C@@H](N)CCCNC(=N)N)[C@@H](C)CC)C(=O)O [Peptide 1261.12],pIC50,HLA-A*0201,7.72
same,pIC50,HLA-A*6802,5.74
same,pIC50,HLA-A*0206,7.43
CC[C@H](C)[C@H](NC(=O)[C@H](Cc1ccccc1)NC(=O)CNC(=O)CNC(=O)[C@@H](NC(=O)CNC(=O)CNC(=O)[C@@H](NC(=O)[C@H](CCSC)NC(=O)[C@@H](N)CCCCN)[C@@H](C)CC)[C@@H](C)CC)C(=O)O [Peptide 1261.17],pIC50,HLA-A*0203,8.32
same,pIC50,HLA-A*0206,6.11
same,pIC50,HLA-A*0202,7.26
CTEMEKBGKISKIGP,DR3 binding information,HLA-DRB1*0301 (DR3); [1],0.0110
DGAANRETKLCKAGY,DR3 binding information,HLA-DRB1*0301 (DR3); [1],−0.0017
FIHNFKRKG,DR7 binding information,HLA-DRB1*0701 (DR7),0.0048
FLQSRPEPT [25.0037],pIC50,HLA-A*0203,7.49
FSPEVIPMF,DR7 binding information,HLA-DRB1*0701 (DR7),0.0023
FYVDGAANR,DR8w2 binding information,HLA-DRB1*0802 (DR8w2),0.0035
same,DR7 binding information,HLA-DRB1*0701 (DR7),−0.0014
same,DR6w19 binding information,HLA-DRB1*1302 (DR6w19),−0.0002
GAVVIQDNSDLKVVP [Peptide 35.0133],pIC50,HLA-DRB1*0301 (DR3),6.00
GIRYQYNYL,A*0201 (binding information),HLA-A*0201; [2],0.0001
IDPENPYNT,DR7 binding information,HLA-DRB1*0701 (DR7),−0.0005
IILALQDSGL,A*0201 (binding information),HLA-A*0201; [2],0.0005
IILKTAVQMA,A0301 (HIV A03 Motif Peptides with Binding Information),"HLA-A*0301; HIV POL-derived A03 motif peptides, binding value for purified HLA-A*0301, unit not given",0.0003
same,A*0201 (binding information),HLA-A*0201; [2],0.0033
IILKTAVQMAV,A*0201 (binding information),HLA-A*0201; [3],0.0005
IKQEFGIPY,DR8w2 binding information,HLA-DRB1*0802 (DR8w2),−0.0009
same,DR7 binding information,HLA-DRB1*0701 (DR7),−0.0014
same,DR6w19 binding information,HLA-DRB1*1302 (DR6w19),0.0123
ILKEPVIIGV,A*0201 (binding information),HLA-A*0201; [2],0.0055
ILRQRKTDR,DR8w2 binding information,HLA-DRB1*0802 (DR8w2),0.0270
same,DR7 binding information,HLA-DRB1*0701 (DR7),−0.0014
same,DRw619 binding information,HLA-DRB1*1302 (DR6w19); [1],0.0016
IVASCDKCQL,A*0201 (binding information),HLA-A*0201; [3],0.0006
IVTDSQYAL,A*0201 (binding information),HLA-A*0201; [2],0.0024
same,DR8w2 binding information,HLA-DRB1*0802 (DR8w2),−0.0009
same,DR7 binding information,HLA-DRB1*0701 (DR7),−0.0014
same,DR6w19 binding information,HLA-DRB1*1302 (DR6w19),0.0108
KAYDTEVIINV,A*0201 (binding information),HLA-A*0201; [2],0.0013
KCQLKOEAMHGQVDC (KCQLKGEAMHGQVDC; HUMAN IMMUNO… VIRUS),DR3 binding information,HLA-DRB1*0301 (DR3); [4],−0.0017
KIEELRQIIL,A*0201 (binding information),HLA-A*0201; [2],0.0001
KIEELRQIILL,A*0201 (binding information),HLA-A*0201; [3],0.0002
KLNWASQIYA [25.0161],pIC50,HLA-A*0203,6.40
same,pIC50,HLA-A*0206,5.21
same,pIC50,HLA-A*0202,5.41
LLWKGEGAVV [1069.33],pIC50,HLA-A*0203,7.60
same,pIC50,HLA-A*0206,6.11
same,pIC50,HLA-A*0202,6.20
LVEICTEMEKECKIS,DR3 binding information,HLA-DRB1*0301 (DR3); [4],−0.0017
LVITFYWGL,A*0201 (HIV A02 Super Motif Peptides with Binding Information),"HLA-A*0201; binding value for purified HLA-A*0201 as printed in Table VIII, unit not given",0.0031
LYSAGIRKYL,A*0201 (binding information),HLA-A*0201; [3],0.0002
MLNTVGGIIQA,A0301 (binding information),"HLA-A*0301; HIV A03 motif peptides, Table XVI, binding value to purified HLA-A*0301, unit not given",0.0005
same,A*0201 binding (HIV A02 Super Motif Peptides with Binding Information),HLA-A*0201; unit not given,0.0022
MVEQMIIEDI,A*0201 (binding information),HLA-A*0201; [5],0.0002
MVEQMIIEDII,A*0201 (binding information),HLA-A*0201; [2],0.0001
NVWAIIIACV,A*0201 (binding information),HLA-A*0201; [5],0.0002
QMIIEDIISL,A*0201 (binding information),HLA-A*0201; [5],0.0023
STVQCTIIGI,A*0201 (binding information),HLA-A*0201; [5],0.001
VAKEIVASC,DR7 binding information,HLA-DRB1*0701 (DR7),0.0015
VIQDNSEIKV,A*0201 binding,"HLA-A*0201; HIV A02 supermotif peptides, Table VIII, binding value with unit not given",0.0013
VIQGNSDIK,DR8w2 binding information,HLA-DRB1*0802 (DR8w2),−0.0009
same,DR7 binding information,HLA-DRB1*0701 (DR7),−0.0014
same,DR6w19 binding information,HLA-DRB1*1302 (DR6w19),0.0447
VLAEAMSQV,A*0201 binding (HIV A02 Super Motif Peptides with Binding Information),HLA-A*0201; unit not given,0.1100
same,DR7 binding information,HLA-DRB1*0701 (DR7),0.0025
VVEEKAFSP,DR7 binding information,HLA-DRB1*0701 (DR7),0.0003
WAGIKQEFGIPYNPQ [Peptide 35.0131],pIC50,HLA-DRB1*0301 (DR3),6.52
WATIIACVPT,A*0201 (binding information),HLA-A*0201; [5],0.0002
